Laboratory results taken from PMC4699842, “Synthetic prions with novel strain-specified properties” (PLoS Pathogens, 2015).

Molecular target: the molecule itself
Test: thioflavin-T fibrillization assay

B1: recombinant mouse prion protein residues 23-231 (recMoPrP(23–231)) (natural protein)
chain: not shown
notes: also called recPrP; rec full-length mouse (Mo) PrP
B1: binds.
